Results on two substances are retold here after publication PMC4212835.

In the experiment the target is Enterococcus faecalis pyruvate dehydrogenase complex component E2 (dihydrolipoamide acetyltransferase) (Enterococcus faecalis). Nature of the experiment: SEC.

In the case of “Enterococcus faecalis pyruvate dehydrogenase complex component E3 (dihydrolipoyl dehydrogenase) (from UniProt A0ACD6TCW3 1-468) (enzyme)”, the relative abundance of subunits E1, E2, and E3 (mass ratio, E2 = 1) amounted to 1.26 mass ratio. The result for “Enterococcus faecalis pyruvate dehydrogenase complex component E1 (pyruvate dehydrogenase; E1α and E1β) (from UniProt A0ACD6TC15 1-371)” reads 2.27 mass ratio.
